Measurements taken from article doi:10.1101/2024.06.18.599654 (bioRxiv, 2024).
Values joined by “and” are separate entries in the source; they are usually repeats but may differ in a detail not shown here. Equal values may be shown once.

Molecular target: the molecule itself
Test: SEC

B1: PE11 (Rv1169c) esterase of Mycobacterium tuberculosis, recombinant His-tagged (enzyme)
chain: MSFVTTRPDSIGETAANLHEIGVTMSAHDDGVTPLITNVESPAHDLVSIVTSMLFSMHGELYKAIARQAHVIHESFVQTLQTSKTSYWLTELANRAGTST
stoichiometry N: 4 and 2
